# Results taken from the supplement of paper PMC10567573.
# ± gives the standard deviation.
# Assay: protein stability index of a GFP-peptide fusion (GPS, HEK-293T) (PSI 1-6); higher = more stable
# [1] = treatment: DMSO, c terminus: a fixed tail appended
# [2] = treatment: MLN4924 1 uM, 8 h, c terminus: a fixed tail appended
# 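Further: 24-mer peptide tiles fused after GFP, lentivirally expressed, FACS-sorted into six equal bins by GFP/DsRed ratio, decoded by Illumina sequencing, PSI is the read-weighted mean bin number.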
Sequence,protein stability index [1],protein stability index [2],"protein stability index (treatment: DMSO, c terminus: native)","protein stability index (treatment: MLN4924 1 uM, 8 h, c terminus: native)"
FKLDKKYQRPQDSEDMWGDEDFTF [FBF1],4.12 ± 0.18,4.14 ± 0.23,–,–
LALLPAAWEDSHGSQDGHFVLSCS [SCNN1D],2.92 ± 0.083,2.9 ± 0.34,–,–
FNFVSTPKCSCGQLAAVHLSKSRT [RNF180],2.14 ± 0.43,2.05 ± 0.26,–,–
KLFESVECYDPRTQQWTAICPLKE [GAN],2.5 ± 0.38,2.82 ± 0.13,–,–
SPQSGSILTEETEVKGTLEGDVCG [PBXIP1],5.59 ± 0.11,5.33 ± 0.35,–,–
LPEELRRLSGLSSVGHNWRKRMGT [C22orf15],2.99 ± 0.18,3.07 ± 0.22,–,–
LKGYPSLMRSQSPKAQPQTWKSGK [TRIM29],3.88 ± 0.36,3.93 ± 0.22,–,–
ESGKEEGMKIDLIDGKGRGVIATK [KMT5A],5.12 ± 0.41,5.39 ± 0.39,–,–
FVQILLALHHVHTHLILHRDLKTQ [NEK8],2.98 ± 0.064,3.01 ± 0.2,–,–
AEPAPRAREGGGCGRSEVRPVAPR [SMAD6],4.35 ± 0.093,4.15 ± 0.4,–,–
RQTSTKAVQHFYNIKLEGKVPMHK [ESRRG],3.32 ± 0.11,3.5 ± 0.26,–,–
KGLEDTKSPQFNRYFYLLENIAWV [PDS5B],2.44 ± 0.89,2.31 ± 0.37,–,–
VCLEYLKEPVIIECGHNFCKACIT [TRIM39],2.38 ± 0.55,2.28 ± 0.29,–,–
VRLHDSISEEGHHYLIFDLVTGGE [CAMK2A],2.23 ± 0.4,2.26 ± 0.18,–,–
TFEVPEENTAETITRVLYEVFIEW [ZBED1],2.07 ± 0.4,2 ± 0.47,–,–
ARVLDRRGCSRVEGGGTSLHVACE [ANKRD9],3.57 ± 0.27,3.47 ± 0.46,–,–
RHQRTHTGEKPYQCNICGKCFSCN [ZNF263],4.08 ± 0.43,4.37 ± 0.3,–,–
TASYPSDGCGADGLRSRVKYGVKT [NOL4L],3.84 ± 0.24,3.98 ± 0.32,–,–
QEKLQVLMAEGLLPAVKVFLDWLR [SMG5],2.5 ± 0.7,2.57 ± 0.54,–,–
SLIPPRSEQLVNFTGKAEMGGPFS [TMEM106C],3.65 ± 0.34,3.47 ± 0.3,–,–
SYKNLTLKFHKLVNVTIHFRLKTI [MCOLN1],3.21 ± 0.5,3.03 ± 0.41,–,–
DERRDAEERASLAGNRNSMVIHIP [KCNK9],4.24 ± 0.08,4.51 ± 0.086,–,–
FRHDRLRFRDFVDALEDSLEEVAV [PBXIP1],3.04 ± 0.47,3.48 ± 0.3,–,–

Sequence,protein stability index [1],protein stability index [2],"protein stability index (treatment: DMSO, c terminus: native)","protein stability index (treatment: MLN4924 1 uM, 8 h, c terminus: native)"
VPSKPPMSLEPQNGTYAGPAPAFQ [ANKRD40],4.12 ± 0.41,4.25 ± 0.14,–,–
KMPVYSGSRPACQLQVPTLRQQCA [ELOA2],3.23 ± 0.32,3.14 ± 0.15,–,–
LQDGRRKVHYLFPDGKEMAEEYDE [DPCD],4.7 ± 0.064,4.72 ± 0.37,–,–
PGRPARLDQLLDMPAAGLAVQLRH [SPSB4],3.04 ± 0.36,3.33 ± 0.27,–,–
DARDEELEKDTMDNWDEKKLEEVV [ZC3H15],5.45 ± 0.4,5.21 ± 0.25,–,–
HDELLAEHIKSLLIKNNSLPRKRQ [INTS3],5 ± 0.17,4.98 ± 0.2,–,–
PASRRRVVEEVRRRATSGGKWPQV [LPCAT4],3.99 ± 0.17,3.82 ± 0.23,–,–
SLFKLKPLSNKTATDDTGGKDPRN [PLD5],4.44 ± 0.54,4.65 ± 0.11,–,–
SWAKSIPGFSSLSLSDQMSVLQSV [ESRRA],2.5 ± 0.32,2.66 ± 0.17,–,–
DARDGQSRTVRQFQFTDWPEQGVP [PTPRD],4.08 ± 0.61,4.32 ± 0.41,–,–
ILLQEIPIRSISLRSCYFSDPDCS [FBXO39],2.55 ± 0.54,2.91 ± 0.72,–,–
DSEFSMQEPMVPAKLGTQAEKDRR [PPFIA4],4.9 ± 0.77,5.646 ± 0.045,–,–
LGNGLLRKKTLVPGPPGSSRPVKG [FKBP8],3.94 ± 0.12,4.05 ± 0.47,–,–
KVLEEGGFFEEKGAIFCPPCYDVR [PDLIM7],2.96 ± 0.29,2.92 ± 0.36,–,–
IIKICDFGFAQILIPGDAYTDYVA [CDKL4],2.6 ± 0.59,2.81 ± 0.95,–,–
GFVFGTTLIMLLSLAAFSVISVVS [RTN3],3.2 ± 0.33,2.61 ± 0.58,–,–
SSDMMDSSSFSNLDLSEEDSDDPS [VDR],5.66 ± 0.25,5.63 ± 0.26,–,–
ELHRRLDEEQQVLLSRLEEEEQDI [TRIM39],5.426 ± 0.033,5.49 ± 0.17,–,–
LDFLHSANFSLGSINQRLNKRERS [RNF180],3.69 ± 0.24,3.86 ± 0.4,–,–
AKKAMGYQPLVTMDDAMERTVQSF [NSDHL],3.62 ± 0.069,3.46 ± 0.39,–,–
HMIQGAGSLEKALPIIQSNQVSSN [DLC1],4.22 ± 0.23,4.27 ± 0.24,–,–
TDAPEQFISQVTVLKYFSHYMEEN [PLK2],2.09 ± 0.28,2.15 ± 0.23,–,–
AFELLGKNTFEFLKENNFQPYPLP [CLK3],2.51 ± 0.33,2.65 ± 0.086,–,–

Sequence,protein stability index [1],protein stability index [2],"protein stability index (treatment: DMSO, c terminus: native)","protein stability index (treatment: MLN4924 1 uM, 8 h, c terminus: native)"
FMPQGAGGHTREARIQTLEPDNWM [RSAD1],3.27 ± 0.33,3.11 ± 0.29,–,–
FQRAMHDYNQAEMKQRDNCKIRIQ [STX11],3.08 ± 0.33,3.44 ± 0.37,–,–
PLLGVKGDGKSKKKQAGRPKGSKG [RBBP5],4.88 ± 0.15,4.88 ± 0.35,–,–
DVVEDYKKRYEEEINKRTAAENEF [KRT71],5.13 ± 0.093,5.37 ± 0.3,–,–
NDLQDLREQILRVKDTDDVPMILV [RAP1B],2.82 ± 0.3,3.06 ± 0.21,–,–
VGELNGYLRDSSPAPCADGPAGGL [PWWP2B],4.29 ± 0.23,4.16 ± 0.068,–,–
EDPDYYGQEIWSREPYYARPEPEL [CPXM2],4.38 ± 0.11,–,–,–
AIEGIPGSDYVNANYIDGYRKQNA [PTPRD],4.09 ± 0.24,4.6 ± 0.12,–,–
DYVHISSKPCDLHCTTVDGQRQLM [ADAMTSL2],3.45 ± 0.29,3.44 ± 0.23,–,–
VNQDILENKESWDKILALVPETIH [PRIM1],3.16 ± 0.19,2.85 ± 0.32,–,–
FLVFVIVLFFIYHFMQAEEGNPF [EMD],–,–,2.94 ± 0.44,2.83 ± 0.17
GQVAEDRFPESHLPIQTPGAFLRT [TLE6],3.53 ± 0.48,3.99 ± 0.38,–,–
VAPLADGKVAVGQDDLTVVLNEEG [VPS39],5.46 ± 0.18,5.59 ± 0.17,–,–
HFERRDNMNDNFLEGEEENELTLN [CHGB],5.53 ± 0.06,5.61 ± 0.21,–,–
ILAETGIRKTVKRLRKHQHVGDFA [ELOA2],2.78 ± 0.23,3.16 ± 0.49,–,–
AKYEYMEEQVILTEKDLLEDGFGE [SAT1],4.02 ± 0.4,4.06 ± 0.37,–,–
FPDVPLGIFLFCVCVIAIGVVQAL [TMEM175],2.63 ± 0.62,2.28 ± 1.2,–,–
RRDCDALMAGCIQEARERWNFDFV [CDKN1A],2.06 ± 0.25,2.05 ± 0.19,–,–
SNSLAIAILMKAYQRFRQKSKASF [PTGFR],2.1 ± 0.25,2.23 ± 0.19,–,–
KSDKALMMLFNDGTFQVNFYHDHT [PLK2],1.86 ± 0.32,2.25 ± 0.14,–,–
MVSSVLCRCVASPPPDAAATAASS [SLC25A25],2.94 ± 0.24,2.92 ± 0.22,–,–
RIFTSNTHSSVVLQGFDQLRLEGL [KLHL13],2.42 ± 0.18,2.49 ± 0.27,–,–
FEGDMGAAGGDGELGSPLRRSISS [PSD2],4.81 ± 0.2,4.94 ± 0.13,–,–

Sequence,protein stability index [1],protein stability index [2],"protein stability index (treatment: DMSO, c terminus: native)","protein stability index (treatment: MLN4924 1 uM, 8 h, c terminus: native)"
EAVPEGPDGGGPWLEDEPGRGAQG [ZSWIM9],5.45 ± 0.52,5.56 ± 0.35,–,–
QVVVLVRDNGDPSLSSTATVLLVL [PCDHGC5],3.25 ± 0.44,3.17 ± 0.23,–,–
ANNDHTVLSLACAGGHLAVVELLL [ANKRD17],2.41 ± 0.25,2.42 ± 0.24,–,–
HHAQTSKTERINALELLGATFVDK [FEM1C],3.83 ± 0.12,3.86 ± 0.31,–,–
TLPPASRFIIIFEQIRFVMKAHSF [SOAT1],2.31 ± 0.48,2.57 ± 0.74,–,–
EYQLYEDIGKGAFSVVRRCVKLCT [CAMK2B],2.45 ± 0.26,2.25 ± 0.36,–,–
FSPDFTLRNTLKSTSEDSLVKQEC [FAN1],2.67 ± 0.58,3.43 ± 0.85,–,–
EEQRVEQQTKLEAEKLKVQALKDR [LSM1],5.55 ± 0.28,5.36 ± 0.12,–,–
IMELTGGGQESSGLNLGKKISVPR [MYOZ1],3.58 ± 0.19,3.83 ± 0.33,–,–
PMQKLQDLVNRTPWKKCCFSGDGE [RBBP5],2.84 ± 0.15,2.94 ± 0.071,–,–
MDSDFSHAFQKELTCVICLNYLVD [TRIM43],2.6 ± 0.39,2.53 ± 0.44,–,–
VIWDFLTRGIAKIISAHIHPVCSL [RBBP5],3.31 ± 0.46,3.3 ± 0.35,–,–
DSSEEESHRVVLRPRGKERHKSGV [LYSMD4],5.21 ± 0.28,5.14 ± 0.11,–,–
HLRIHTGEKPYKCTHCSKSFRQRA [ZNF449],2.83 ± 0.43,3.11 ± 0.38,–,–
QLRNVRERLAKNLVEKGVLTTEKQ [GOLPH3],3.68 ± 0.34,3.84 ± 0.17,–,–
WLSTAPTEPLTHWYQVRCLFQSPL [CARM1],2.44 ± 1,2.19 ± 0.4,–,–
GPRPPAGELGSIGDHERAIDFSPY [CEBPB],4.15 ± 0.25,4.28 ± 0.21,–,–
RRTRPRHHHGRSRPDRSSQGGSLP [CHGB],4.93 ± 0.36,5.07 ± 0.23,–,–
EEDNDDAKILPSPVQGSSEDNLSL [DRICH1],5.57 ± 0.25,5.55 ± 0.17,–,–
PQHAADTPKSGEPRVPEEAAQDRP [YJU2B],5.62 ± 0.26,5.42 ± 0.26,–,–
